For assay [1], the target named is T1, control peptide A2E-14/HLA-A*02:01 complex on T2 cells (member of the P19 mixture) (human).
T1 construct: Loaded on T2 cells as part of the mixture of 19 control peptides
Put plainly: FACS; scFv phage on T2 cells loaded with the P19 mixture. The procedure: (§1) Individual phage clones from enriched phage display panning pools against PSA146/HLA-A*02:01 complex were incubated in the coated plates. Binding of the phage clones was detected by HRP-conjugated anti-M13 antibodies and developed using HRP substrate. The absorbance was read at 450 nm. […] Then, unique antibody clones were identified through DNA sequencing of ELISA-positive clones. […] T2 cells loaded with different peptides and β2M were first stained with purified scFv phage clones, followed by staining with a mouse anti-M13 mAb, and finally R-PE conjugated horse anti-mouse IgG from Vector Labs. Each step of the staining was performed for between 30-60 minutes on ice and the cells were washed twice between stainings. All 16 clones recognized PSA146-loaded T2 cells specifically. FIG. 3 provides examples of PSA146/HLA-A*02:01 specific phage clone binding to peptide-loaded T2 cells through FACS.
(In general: A flow cytometer gives signals particle by particle.)

Assay [2] addresses T2, control peptide A2E-4/HLA-A*02:01 complex on T2 cells (member of the P19 mixture) (human).
T2 construct: Loaded on T2 cells as part of the mixture of 19 control peptides
The description is as above. The protocol: as §1

Assay [3] deals with T3, control peptide A2E-3/HLA-A*02:01 complex on T2 cells (member of the P19 mixture) (human).
T3 construct: Loaded on T2 cells as part of the mixture of 19 control peptides
The description is as above. The procedure:
as §1

Assay [4] has as its target T4, control peptide A2E-19/HLA-A*02:01 complex on T2 cells (member of the P19 mixture) (human).
T4 construct: Loaded on T2 cells as part of the mixture of 19 control peptides
Described as above. The protocol: as §1

The target in assay [5] is T5, control peptide A2E-6/HLA-A*02:01 complex on T2 cells (member of the P19 mixture) (human).
T5 construct: Loaded on T2 cells as part of the mixture of 19 control peptides
The assay is described as above. The protocol: as §1

Assay [6] addresses T6, control peptide A2E-15/HLA-A*02:01 complex on T2 cells (member of the P19 mixture) (human).
T6 construct: Loaded on T2 cells as part of the mixture of 19 control peptides
The description is as above. The procedure:
as §1

Assay [7] addresses T7, control peptide A2E-11/HLA-A*02:01 complex on T2 cells (member of the P19 mixture) (human).
T7 construct: Loaded on T2 cells as part of the mixture of 19 control peptides
The assay is described as above. The protocol:
as §1

The target of assay [8] is T8, control peptide A2E-5/HLA-A*02:01 complex on T2 cells (member of the P19 mixture) (human).
T8 construct: Loaded on T2 cells as part of the mixture of 19 control peptides
The assay is described as above. The procedure:
as §1

In assay [9] the target is T9, control peptide A2E-10/HLA-A*02:01 complex on T2 cells (member of the P19 mixture) (human).
T9 construct: Loaded on T2 cells as part of the mixture of 19 control peptides
Described as above. The protocol: as §1

Assay [10] has as its target T10, control peptide A2E-13/HLA-A*02:01 complex on T2 cells (member of the P19 mixture) (human).
T10 construct: Loaded on T2 cells as part of the mixture of 19 control peptides
The assay is described as above. The protocol:
as §1

For assay [11], the target named is T11, control peptide A2E-8/HLA-A*02:01 complex on T2 cells (member of the P19 mixture) (human).
T11 construct: Loaded on T2 cells as part of the mixture of 19 control peptides
The description is as above. The protocol:
as §1

Assay [12] deals with T12, control peptide A2E-21/HLA-A*02:01 complex on T2 cells (member of the P19 mixture) (human).
T12 construct: Loaded on T2 cells as part of the mixture of 19 control peptides
Described as above. The procedure:
as §1

For assay [13], the target named is T13, control peptide A2E-9/HLA-A*02:01 complex on T2 cells (member of the P19 mixture) (human).
T13 construct: Loaded on T2 cells as part of the mixture of 19 control peptides
The assay is described as above. The procedure:
as §1

For assay [14], the target named is T14, control peptide A2E-2/HLA-A*02:01 complex on T2 cells (member of the P19 mixture) (human).
T14 construct: Loaded on T2 cells as part of the mixture of 19 control peptides
The assay is described as above. The protocol: as §1

In assay [15] the target is T15, control peptide A2E-16/HLA-A*02:01 complex on T2 cells (member of the P19 mixture) (human).
T15 construct: Loaded on T2 cells as part of the mixture of 19 control peptides
The description is as above. The procedure:
as §1

Assay [16] concerns the target T16, control peptide A2E-7/HLA-A*02:01 complex on T2 cells (member of the P19 mixture) (human).
T16 construct: Loaded on T2 cells as part of the mixture of 19 control peptides
The description is as above. The procedure: as §1

Assay [17] has as its target T17, control peptide A2E-17/HLA-A*02:01 complex on T2 cells (member of the P19 mixture) (human).
T17 construct: Loaded on T2 cells as part of the mixture of 19 control peptides
The assay is described as above. The protocol: as §1

Assay [18] concerns the target T18, control peptide A2E-23/HLA-A*02:01 complex on T2 cells (member of the P19 mixture) (human).
T18 construct: Loaded on T2 cells as part of the mixture of 19 control peptides
The description is as above. The procedure: as §1

Assay [19] addresses T19, control peptide A2E-1/HLA-A*02:01 complex on T2 cells (member of the P19 mixture) (human).
T19 construct: Loaded on T2 cells as part of the mixture of 19 control peptides
The description is as above. The protocol: as §1

For assay [20], the target named is T20, HLA-A*02:01 on T2 cells with no peptide loaded (human).
T20 construct: TAP-deficient T2 cells, no peptide loaded from outside; also called T2 cells without peptide loading
The assay can be described thus: FACS; scFv phage on T2 cells without peptide. The procedure:
as §1

Assay [21] addresses T21, PSA 146-154 peptide/HLA-A*02:01 complex on the cell surface (human).
T21 construct: also called PSA146/HLA-A*02:01; PSA146-loaded T2 cells
Put plainly: FACS; scFv phage on PSA146-loaded live T2 cells. The procedure: as §1

B1: PSA146/HLA-A*02:01-specific scFv phage clone #8 (scFv, V domains shown)
VH: QVQLQQWGAGLLKPSETLSLTCAVKGGSFSDYYWSWIRQPPGKGLEWIGEINHSGGTNYNPSLKSRVTISVDTSKNQFSLKLLSVTAADTAVYYCARYNEYGSGYDKWGQGTLVTVSS
VL: QSVLTQPPSVSAAPGQKVTISCSGSSYNIGNNYVSWYQQLPGTAPKLLIYDNNKRPSGIPDRFSGSKSGTSATLGITGLQTGDEAEYYCGTWESSLSAYVFGTGTKVTVLG
Consider B1, for which the binding result in [1], in assay [2], in [3], in assay [4], in assay [5] and in assay [6] was “no binding” throughout. In addition, the binding result in [7], in [8], in [9], in assay [10], in assay [11] and in [12] was “no binding” in each case. The binding result in [13], in assay [14], in assay [15], in assay [16], in assay [17] and in [18] was “no binding” throughout. Besides, the binding result in [19] was “no binding”; in assay [20] it was “no binding”; in assay [21], “binds”.
